Source: publication PMC3656001

Key:
[1] = biological target: bovine lactoferrin (bovine); experiment: AUC; multi-signal sedimentation velocity (MSSV) with mass conservation and low-s constraints; mixture of 6.9 µM Tp34 and 2.3 µM bLF in solution, diluted from Buffer A into 20 mM Tris pH 7.5, 20 mM NaCl; 20°C, 50,000 rpm; interference + absorbance at 280 nm; Kd estimated from the reaction boundary molar ratio by effective particle theory, assuming sAB = 6.2 S
[2] = biological target: bovine lactoferrin (bovine); experiment: AUC; follow-up multi-signal sedimentation velocity (MSSV) without constraints, conducted almost identically to a1 but with absorbance at 280 nm and 250 nm and no interference signal; Tp34/bLF mixture in solution

B1: Tp34 from Treponema pallidum (natural protein)
chain: CGGGGEHQHGEEMMAAVPAPDAEGAAGFDEFPIGEDRDVGPLHVGGVYFQPVEMHPAPGAQPSKEEADCHIEADIHANEAGKDLGYGVGDFVPYLRVVAFLQKHGSEKVQKVMFAPMNAGDGPHYGANVKFEEGLGTYKVRFEIAAPSHDEYSLHIDEQTGVSGRFWSEPLVAEWDDFEWKGPQW
**Q.** Which Kd [1] does the source give for B1 here?
**A.** 3.1 µM

**Q.** What about the stoichiometry N (mol Tp34 per mol bLF) [1] of the same binder?
**A.** 0.7

**Q.** And the stoichiometry N (mol Tp34 per mol bLF) [2]?
**A.** 0.7
